Our source for the binding result and Kd values is patent US20220213221 (published 2022).

In test [1] the target is T1, RhoA T19N (human, UniProt P61586).
The next test concerns the target RhoA Q63L (human, UniProt P61586).
In test [2] the target is RhoA wild type GDP-loaded (human, UniProt P61586). Description: ELISA. Background: ELISA stands for enzyme-linked immunosorbent assay.
In test [3] the target is T1, RhoA T19N. Description: ELISA.
The next test concerns the target T2, RhoC Q63L (human, UniProt P08134).
T2 chain: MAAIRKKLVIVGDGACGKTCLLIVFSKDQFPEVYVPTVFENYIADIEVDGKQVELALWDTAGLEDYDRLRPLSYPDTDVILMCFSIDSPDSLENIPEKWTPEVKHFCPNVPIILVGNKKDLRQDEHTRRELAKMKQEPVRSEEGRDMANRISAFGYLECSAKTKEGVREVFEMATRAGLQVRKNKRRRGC

The target in the next test is T3, RhoB Q63L (human, UniProt P62745).
T3 chain: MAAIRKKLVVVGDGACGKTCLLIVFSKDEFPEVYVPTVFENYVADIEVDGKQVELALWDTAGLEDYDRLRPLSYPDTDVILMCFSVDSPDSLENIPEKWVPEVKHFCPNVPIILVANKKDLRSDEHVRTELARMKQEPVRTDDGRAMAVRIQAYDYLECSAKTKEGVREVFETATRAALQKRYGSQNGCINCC

Read-outs that look alike come from different tables or passages of the source.

T1 sequence (P61586 1-190 T19N): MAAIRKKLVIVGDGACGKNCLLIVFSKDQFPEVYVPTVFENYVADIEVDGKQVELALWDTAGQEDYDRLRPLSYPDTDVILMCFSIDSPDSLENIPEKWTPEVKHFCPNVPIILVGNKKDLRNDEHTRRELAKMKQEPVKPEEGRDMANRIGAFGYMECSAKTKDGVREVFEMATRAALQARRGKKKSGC

B1: 5SNP48 (antibody, V domains shown)
VH: VQLQASGGGFVQPGGSLRLSCAASGTSWFTEVMGWFRQAPGKEREFVSAISGLHDVGTYYADSVKGRFTISRDNSKNTVYLQMNSLRAEDTATYYCAALDKWYTKAMDARKDYWGQGTQVTVSS
For B1, the binding result in the test with RhoA T19N [1] is “no binding”.

B2: H12 (antibody, V domains shown)
VH: VQLQASGGGFVQPGGSLRLSCAASGDGSRIYAMGWFRQAPGKEREFVSAISWEQDWEHYYADSVKGRFTISRDNSKNTVYLQMNSLRAEDTATYYCAAFMTPHRNLTSMYWGQGTQVTVSS
B2: the Kd with RhoA Q63L stood at 0.265 nM; with RhoC Q63L, 0.0479 nM. Moreover, the binding result (in test [2]; with RhoA T19N [3]) was “no binding” throughout.

B3: 4SNP36 (antibody, V domains shown)
VH: VQLQASGGGFVQPGGSLRLSCAASGTSWKDYTMGWFRQAPGKEREFVSAISEGPGAQYYYADSVKGRFTISRDNSKNVYLQMNSLRAEDTATYYCAYSSWQPYVSYWGQGTQVTVSS
As for B3, the Kd amounted to 0.278 nM with RhoB Q63L, 0.296 nM in the test with RhoA Q63L and 0.0831 nM with RhoC Q63L.

B4: 5SNP65 (antibody, V domains shown)
VH: VQLQASGGGFVQPGGSLRLSCAASGATYEGEAMGWFRQAPGKEREFVSAISSYPSVISYYADSVKGRFTISRDNSKNTVYLQMNSLRAEDTATYYCAYWVNHEGTIREIYWGQGTQVTVSS
On to B4, for which, in the test with RhoA T19N [1], the binding result is recorded as “no binding”.

B5: B6 (antibody, V domains shown)
VH: VQLQASGGGFVQPGGSLRLSCAASGYGSTIETMGWFRQAPGKEREFVSAISRAPGPSQYYADSVKGRFTISRDNSKNTVYLQMNSLRAEDTATYYCAPINNRTMQDSMFLWNYWGQGTQVTVSS
For B5, the Kd with RhoB Q63L was 0.71 nM.

For orientation: Kd means the constant that tells how readily two partners part at equilibrium. Higher therefore signals a looser complex.
